From article PMC10128029
pKd: −log10 of the molar value.

Columns and labels:
Assay in all cases: EMSA
[1] = tested on: TilS P421L (Burkholderia cenocepacia HI2424); conditions: unmodified in vitro transcript; EMSA: 3.5 nM 32P-tRNA, 220 nM-39.0 µM TilS, 100 mM Tris-HCl pH 7.8, 5 mM DTT, 10 mM MgCl2, 10 mM KCl, 10% glycerol, 37 C, 30 min; native 10% PAGE
[2] = tested on: TilS A244T (Burkholderia cenocepacia HI2424); conditions: unmodified in vitro transcript; EMSA: 3.5 nM 32P-tRNA, 220 nM-39.0 µM TilS, 100 mM Tris-HCl pH 7.8, 5 mM DTT, 10 mM MgCl2, 10 mM KCl, 10% glycerol, 37 C, 30 min; native 10% PAGE
[3] = tested on: TilS N445K (Burkholderia cenocepacia HI2424); conditions: unmodified in vitro transcript; EMSA: 3.5 nM 32P-tRNA, 220 nM-39.0 µM TilS, 100 mM Tris-HCl pH 7.8, 5 mM DTT, 10 mM MgCl2, 10 mM KCl, 10% glycerol, 37 C, 30 min; native 10% PAGE
[4] = tested on: TilS WT (Burkholderia cenocepacia HI2424); conditions: 10 mM Mg2+; unmodified in vitro transcript; EMSA: 3.5 nM 32P-tRNA, 220 nM-39.0 µM TilS, 100 mM Tris-HCl pH 7.8, 5 mM DTT, 10 mM MgCl2, 10 mM KCl, 10% glycerol, 37 C, 30 min; native 10% PAGE
[5] = tested on: TilS N274Y (Burkholderia cenocepacia HI2424); conditions: unmodified in vitro transcript; EMSA: 3.5 nM 32P-tRNA, 220 nM-39.0 µM TilS, 100 mM Tris-HCl pH 7.8, 5 mM DTT, 10 mM MgCl2, 10 mM KCl, 10% glycerol, 37 C, 30 min; native 10% PAGE

With tRNAIle2 (CAU) as the substance, how does the pKd [1] read?
The pKd was 5.35.

What about the pKd [2] of the same substance?
The pKd was 5.34.

What about the pKd [3] of the same substance?
Its pKd is 5.51.

What about the pKd [4] of the same substance?
The pKd was 5.59.

What about the pKd [5] of the same substance?
Its pKd is 5.48.
